Reference: PMC10397247
Each block holds one binder with its values, some of them ahead of it.

Legend:
Test in all cases: two-hybrid library CCmax;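 further: natural log of median RNA to DNA barcode read ratio; higher means stronger binding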
[1] = target: T1, P5-AA-1HAA-S; conditions: mean of both orientations
T1 chain: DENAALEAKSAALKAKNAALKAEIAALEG

[2] = target: T2, P5-AA-12HGe-D; conditions: mean of both orientations
T2 chain: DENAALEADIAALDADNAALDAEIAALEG

[3] = target: T3, P5-AA-1HAA-T
T3 chain: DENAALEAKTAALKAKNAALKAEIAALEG

[4] = target: T4, 4H2458-AA; conditions: mean of both orientations
T4 chain: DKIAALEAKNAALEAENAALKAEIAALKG

[5] = target: T5, 4H2143-AA; conditions: mean of both orientations
T5 chain: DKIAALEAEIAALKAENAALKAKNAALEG

[6] = target: T6, 4H2447-AA; conditions: mean of both orientations
T6 chain: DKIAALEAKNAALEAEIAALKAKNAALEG

[7] = target: T7, APC232-AA; conditions: mean of both orientations
T7 chain: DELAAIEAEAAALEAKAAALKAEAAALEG

[8] = target: T8, APC9096-AA; conditions: mean of both orientations
T8 chain: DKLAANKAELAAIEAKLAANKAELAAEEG

[9] = target: T9, APC2405-AA; conditions: mean of both orientations
T9 chain: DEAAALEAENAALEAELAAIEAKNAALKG

[10] = target: T10, APC8910-AA; conditions: mean of both orientations
T10 chain: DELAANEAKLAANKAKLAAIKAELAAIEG

[11] = target: T11, APC8191-AA; conditions: mean of both orientations
T11 chain: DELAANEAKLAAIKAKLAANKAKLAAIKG

[12] = target: T12, APC1434-AA; conditions: mean of both orientations
T12 chain: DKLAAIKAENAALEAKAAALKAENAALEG

[13] = target: T13, 4H87-AA; conditions: mean of both orientations
T13 chain: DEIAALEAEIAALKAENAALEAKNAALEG

[14] = target: T14, 4H2187-AA; conditions: mean of both orientations
T14 chain: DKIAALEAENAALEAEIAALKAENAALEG

[15] = target: T15, 4H55-AA; conditions: mean of both orientations
T15 chain: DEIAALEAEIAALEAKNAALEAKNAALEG

[16] = target: T16, 4H481-AA; conditions: mean of both orientations
T16 chain: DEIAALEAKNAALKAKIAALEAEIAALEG

[17] = target: T17, 4H2985-AA; conditions: mean of both orientations
T17 chain: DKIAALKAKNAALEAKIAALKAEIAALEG

[18] = target: T18, 4H2211-AA; conditions: mean of both orientations
T18 chain: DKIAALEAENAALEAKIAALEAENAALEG

[19] = target: T19, 4H1985-AA; conditions: mean of both orientations
T19 chain: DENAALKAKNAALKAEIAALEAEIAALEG

[20] = target: T20, 4H233-AA; conditions: mean of both orientations
T20 chain: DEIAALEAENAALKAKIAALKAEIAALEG

[21] = target: T21, 4H2608-AA; conditions: mean of both orientations
T21 chain: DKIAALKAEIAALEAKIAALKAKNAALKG

[22] = target: T22, 4H428-AA; conditions: mean of both orientations
T22 chain: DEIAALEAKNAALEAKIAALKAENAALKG

[23] = target: T23, 4H3066-AA; conditions: mean of both orientations
T23 chain: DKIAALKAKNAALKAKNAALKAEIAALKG

[24] = target: T24, 4H189-AA; conditions: mean of both orientations
T24 chain: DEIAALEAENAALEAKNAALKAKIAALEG

[25] = target: T25, 4H2248-AA; conditions: mean of both orientations
T25 chain: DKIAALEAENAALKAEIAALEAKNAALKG

[26] = target: T26, 4H1348-AA; conditions: mean of both orientations
T26 chain: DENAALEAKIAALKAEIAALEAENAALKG

[27] = target: T27, 4H2947-AA; conditions: mean of both orientations
T27 chain: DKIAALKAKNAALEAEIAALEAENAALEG

[28] = target: T28, 4H2219-AA; conditions: mean of both orientations
T28 chain: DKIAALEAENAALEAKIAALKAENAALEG

[29] = target: T29, P6-AA-12HAA-Y; conditions: mean of both orientations
T29 chain: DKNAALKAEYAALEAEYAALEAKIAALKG

[30] = target: T30, P6-AA-12HAA-D; conditions: mean of both orientations
T30 chain: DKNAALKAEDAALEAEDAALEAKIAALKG

[31] = target: T31, P6-AA-12HAA-E; conditions: mean of both orientations
T31 chain: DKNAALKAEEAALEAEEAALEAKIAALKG

[32] = target: T32, Core_NIIN-es_KEKK
T32 chain: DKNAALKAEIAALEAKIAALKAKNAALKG

[33] = target: T33, P6-AA-12HGe-S; conditions: mean of both orientations
T33 chain: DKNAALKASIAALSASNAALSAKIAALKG

[34] = target: T34, P6-AA-1HGe-M
T34 chain: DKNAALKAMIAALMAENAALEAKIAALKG

[35] = target: T35, P6-AA-12HGe-H; conditions: mean of both orientations
T35 chain: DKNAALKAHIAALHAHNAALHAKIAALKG

[36] = target: T36, P6-AA-12HGe-K; conditions: mean of both orientations
T36 chain: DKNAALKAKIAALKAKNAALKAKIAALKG

[37] = target: T37, O8-AA; conditions: mean of both orientations
T37 chain: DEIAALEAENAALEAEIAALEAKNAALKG

[38] = target: T38, O2-AA; conditions: mean of both orientations
T38 chain: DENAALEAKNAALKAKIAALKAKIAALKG

[39] = target: T39, 4H2721-AA; conditions: mean of both orientations
T39 chain: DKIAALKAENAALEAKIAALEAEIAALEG

[40] = target: T40, 4H895-AA; conditions: mean of both orientations
T40 chain: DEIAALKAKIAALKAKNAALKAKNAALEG

[41] = target: T41, 4H535-AA; conditions: mean of both orientations
T41 chain: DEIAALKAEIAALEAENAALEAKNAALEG

[42] = target: T42, 4H2600-AA; conditions: mean of both orientations
T42 chain: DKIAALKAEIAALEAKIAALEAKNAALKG

- interaction score [1]: 1.63
- interaction score [2]: -1.24
- interaction score [3]: 1.75
Binder: DKNAALKAEIAALEAENAALEAKIAALKG [4H3606-AA]

- interaction score [4]: -1.6
- interaction score [5]: -1.68
- interaction score [6]: -1.57
- interaction score [7]: -2.09
- interaction score [8]: -2.08
- interaction score [9]: -1.12
- interaction score [10]: -1.69
- interaction score [11]: -1.67
- interaction score [12]: -1.56
Binder: DENAALKAKIAALEAKNAALEAKIAALEG [4H1845-AA]

- interaction score [28]: -1.54
Binder: DENAALKAEIAALKAENAALKAEIAALKG [4H1626-AA]

- interaction score [33]: -0.834
- interaction score [34]: 2.24
- interaction score [35]: -1.23
- interaction score [36]: -0.592
Binder: DENAALEAKIAALKAKNAALKAEIAALEG [4H1401-AA]

Second part, the binder before the results:

Binder: DENAALEAKIAALKAEIAALEAKIAALKG [4H1350-AA]
- interaction score [13]: -0.16
- interaction score [14]: -1.97
- interaction score [15]: -1.11
- interaction score [16]: 0.532
- interaction score [17]: 0.636
- interaction score [18]: -1.32
- interaction score [19]: 0.316
- interaction score [20]: 0.257
- interaction score [21]: 1.38

Binder: DENAALEAEIAALEAKIAALEAKNAALKG [4H1064-AA]
- interaction score [22]: -1.04
- interaction score [23]: -1.4
- interaction score [24]: -1.4
- interaction score [25]: -1.34
- interaction score [26]: 1.13

Binder: DEIAALEAENAALKAKNAALKAEIAALEG [4H249-AA]
- interaction score [27]: -1.55

Binder: DENAALEAKIAALKAKIAALKAEIAALEG [4H1385-AA]
- interaction score [29]: 2.29
- interaction score [30]: -1.1
- interaction score [31]: 2.36

Binder: DENAALEAENAALEAEIAALEAEIAALEG [4H1153-AA]
- interaction score [32]: 1.86

Binder: DEIAALEAENAALEAKIAALKAENAALEG [4H171-AA]
- interaction score [37]: 0.645
- interaction score [38]: -1.24

Binder: DENAALEAENAALKAKIAALKAEIAALEG [4H1257-AA]
- interaction score [39]: 1.02
- interaction score [40]: -1.61
- interaction score [41]: -1.14
- interaction score [42]: 0.518
